One test has as its target T1, N-Ras.mant-GMPPNP (Homo sapiens, UniProt P01111).
T1 construct: fluorescence anisotropy of full length, unmodified N-Ras.mant-GMPPNP
The experiment in a line: Fluorescence anisotropy titration of PI3Kγ 144-1102 into N-Ras.mant-GMPPNP. The format is binding. As to conditions: mutants in the 144-1102 construct, FIG. 2A. As to the method:
Mant-nucleotides were synthesised as described previously (Jameson and Eccleston, 1997). N-Ras and H-Ras mutants were loaded with mant-GMPPNP as in (Moore et al., 1993), gel filtered into running buffer (20 mM Tris pH 7.5, 2 mM MgCl2, 1 mM DTT), and frozen at −80° C. The concentration of Ras.mant-GMPPNP was determined by measuring the absorbance of the mant group at […] with ε=5700 M^−1 cm^−1 (Hiratsuka, 1983). For binding assays, the 144-1102 human PI3Kγ was titrated into a 1 μM solution of fill length, unmodified N-Ras.mant-GMPPNP. Data were collected with SLM 8000 S and ISS PC1 spectrofluorimeters, set up in the T-format and L-format, respectively, with prism polarizers. All measurements were taken at 20° C. with a λex of 366 nm. Both emission PMTs were fitted with 399 nm cutoff filters. Five measurements of each data point were obtained and averaged. Data were fitted to the binding equation.
On the technique in general: Fluorescence polarisation rises when a labelled molecule tumbles more slowly, as on binding a larger partner.

For a further test, the target named is N-Ras.GDP (Homo sapiens, UniProt P01111). The experiment in a line: Binding of PI3Kγ constructs to N-Ras.GDP.
N-Ras.GDP, sequence (P01111 whole entry): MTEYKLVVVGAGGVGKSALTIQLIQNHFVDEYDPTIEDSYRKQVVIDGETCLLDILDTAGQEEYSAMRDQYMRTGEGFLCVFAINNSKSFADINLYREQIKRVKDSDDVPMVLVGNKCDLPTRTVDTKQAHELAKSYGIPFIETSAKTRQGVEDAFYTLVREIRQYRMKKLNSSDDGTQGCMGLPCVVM

Where a chain is given by its changes, count along the chain named. Numbers in names are those of the source.

The values that follow come from patent US20040018957A1, “Crystal structure of a Ras-P13K complex” (priority 2000, published 2004).

T1 sequence (P01111 whole entry): as above

B1: V223K: tighter-binding PI3Kγ mutant used for co-crystallisation with Ras (protein, UniProt P48736 1-1102, looked up, variant V223K)
Phosphatidylinositol …: MELENYKQPVVLREDNCRRRRRMKPRSAAASLSSMELIPIEFVLPTSQRKCKSPETALLHVAGHGNVEQMKAQVWLRALETSVAADFYHRLGPHHFLLLYQKKGQWYEIYDKYQVVQTLDCLRYWKATHRSPGQIHLVQRHPPSEESQAFQRQLTALIGYDVTDVSNVHDDELEFTRRGLVTPRMAEVASRDPKLYAMHPWVTSKPLPEYLWKKIANNCIFIKIHRSTTSQTIKVSPDDTPGAILQSFFTKMAKKKSLMDIPESQSEQDFVLRVCGRDEYLVGETPIKNFQWVRHCLKNGEEIHVVLDTPPDPALDEVRKEEWPLVDDCTGVTGYHEQLTIHGKDHESVFTVSLWDCDRKFRVKIRGIDIPVLPRNTDLTVFVEANIQHGQQVLCQRRTSPKPFTEEVLWNVWLEFSIKIKDLPKGALLNLQIYCGKAPALSSKASAESPSSESKGKVQLLYYVNLLLIDHRFLLRRGEYVLHMWQISGKGEDQGSFNADKLTSATNPDKENSMSISILLDNYCHPIALPKHQPTPDPEGDRVRAEMPNQLRKQLEAIIATDPLNPLTAEDKELLWHFRYESLKHPKAYPKLFSSVKWGQQEIVAKTYQLLARREVWDQSALDVGLTMQLLDCNFSDENVRAIAVQKLESLEDDDVLHYLLQLVQAVKFEPYHDSALARFLLKRGLRNKRIGHFLFWFLRSEIAQSRHYQQRFAVILEAYLRGCGTAMLHDFTQQVQVIEMLQKVTLDIKSLSAEKYDVSSQVISQLKQKLENLQNSQLPESFRVPYDPGLKAGALAIEKCKVMASKKKPLWLEFKCADPTALSNETIGIIFKHGDDLRQDMLILQILRIMESIWETESLDLCLLPYGCISTGDKIGMIEIVKDATTIAKIQQSTVGNTGAFKDEVLNHWLKEKSPTEEKFQAAVERFVYSCAGYCVATFVLGIGDRHNDNIMITETGNLFHIDFGHILGNYKSFLGINKERVPFVLTPDFLFVMGTSGKKTSPHFQKFQDICVKAYLALRHHTNLLIILFSMMLMTGMPQLTSKEDIEYIRDALTVGKNEEDAKKYFLDQIEVCRDKGWTVQFNWFLHLVLGIKQGEKHSA
For B1, in the test with N-Ras.mant-GMPPNP, the “effect of PI3Kγ RBD mutation on binding to Ras” value (shortened to “effect of PI3Kγ RBD mutation”) is recorded as “tighter-binding”. Further, the “binding to N-Ras.GDP” value with N-Ras.GDP is listed as “Neither the wild-type protein, the pseudo wild-type (V327A, see methods), nor the V223K mutant exhibit detectable binding”.

B2: T232D: PI3Kγ RBD mutant (protein, UniProt P48736 1-1102, looked up, variant T232D)
Phosphatidylinositol …: B1 Phosphatidylinositol … with K223V, T232D
For B2, the “effect of PI3Kγ RBD mutation” value in the test with N-Ras.mant-GMPPNP was “eliminate binding”.

B3: R226A: PI3Kγ RBD mutant (protein, UniProt P48736 1-1102, looked up, variant R226A)
Phosphatidylinositol …: B1 Phosphatidylinositol … with K223V, R226A
B3: the “effect of PI3Kγ RBD mutation” value with N-Ras.mant-GMPPNP was “reduce binding by up to an order of magnitude”.

B4: K255A: PI3Kγ RBD mutant (protein, UniProt P48736 1-1102, looked up, variant K255A)
Phosphatidylinositol …: B1 Phosphatidylinositol … with K223V, K255A
As to B4, the “effect of PI3Kγ RBD mutation” value with N-Ras.mant-GMPPNP is “eliminate binding”.

B5: K256A: PI3Kγ RBD mutant (protein, UniProt P48736 1-1102, looked up, variant K256A)
Phosphatidylinositol …: B1 Phosphatidylinositol … with K223V, K256A
Turning to B5, the “effect of PI3Kγ RBD mutation” value with N-Ras.mant-GMPPNP is listed as “reduce binding by up to an order of magnitude”.

B6: Lys-254: PI3Kγ mutant, Lys-254 mutated to Ala (protein, UniProt P48736 1-1102, looked up, variant K254A)
Phosphatidylinositol …: B1 Phosphatidylinositol … with K223V, K254A
With B6, the “effect of PI3Kγ RBD mutation” value with N-Ras.mant-GMPPNP was “greatly lowers the affinity”.

B7: K251A: PI3Kγ RBD mutant (protein, UniProt P48736 1-1102, looked up, variant K251A)
Phosphatidylinositol …: B1 Phosphatidylinositol … with K223V, K251A
Take B7: the “effect of PI3Kγ RBD mutation” value in the test with N-Ras.mant-GMPPNP is reported as “eliminate binding”.

B8: K234A: PI3Kγ mutant of a switch II contact residue (protein, UniProt P48736 1-1102, looked up, variant K234A)
Phosphatidylinositol …: B1 Phosphatidylinositol … with K223V, K234A
For the molecule B8, the “effect of PI3Kγ RBD mutation” value in the test with N-Ras.mant-GMPPNP was “probably increases the Kd”.

B9: D260A: PI3Kγ RBD mutant (protein, UniProt P48736 1-1102, looked up, variant D260A)
Phosphatidylinositol …: B1 Phosphatidylinositol … with K223V, D260A
Consider B9, for which the “effect of PI3Kγ RBD mutation” value with N-Ras.mant-GMPPNP is “reduce binding by up to an order of magnitude”.

B10: E267K: tighter-binding PI3Kγ mutant (protein, UniProt P48736 1-1102, looked up, variant E267K)
Phosphatidylinositol …: B1 Phosphatidylinositol … with K223V, E267K
B10: in the test with N-Ras.mant-GMPPNP, the “effect of PI3Kγ RBD mutation” value is “tighter-binding”.
